Data taken from article PMC8630191, “Regulation of PP2A, PP4, and PP6 holoenzyme assembly by carboxyl-terminal methylation” (Scientific Reports, 2021).
Values belong to the binder of their own block, whether it stands above or below them.

How the values were obtained:
Conditions in all cases: partners not purified
[1] = biological target: T1, 3xFLAG-tagged PP2Acβ ΔL mutant (Leu 309 deleted) (human, UniProt P62714 1-309, ΔL309); experiment: affinity purification with mass spectrometry; 3xFLAG-tagged catalytic subunit (WT or ΔL) transfected in FreeStyle 293F cells; FLAG M2 affinity gel, 3 h at 4 °C; lysis and wash buffer 50 mM Tris pH 7.5, 500 mM NaCl, 0.5% Triton X-100; eluted with 3XFLAG peptide; label-free quantitative LC-MS/MS on unique peptides, three replicates
T1 construct: PP2A catalytic subunit, beta isoform (PP2Acβ, PPP2CB), human, in p3XFLAG-CMV10; C-terminal Leu 309 deleted by inserting a stop codon; also called ΔL309

[2] = biological target: T2, PP2A catalytic subunit PP2Acα/β, endogenous (human (endogenous in HEK293T, HeLa, …, UniProt P67775 1-309, carboxyl methyl ester on the C-terminal leucine in wild-type cells; strongly reduced in LCMT1 hypomorph cells); experiment: affinity purification with mass spectrometry; PIB-MS: phosphatase inhibitor beads (microcystin-LR on sepharose) on Rpe1 lysates, wild type and pooled LCMT1 hypomorph cells; label-free LC-MS/MS; subunits normalised to the respective catalytic subunit
T2 construct: PP2A catalytic subunit, alpha (PPP2CA) or beta (PPP2CB) isoform; One molecule for wild-type and LCMT1 hypomorph cells; also called PP2Acβ; PPP2CA/B

[3] = biological target: T2, PP2A catalytic subunit PP2Acα/β, …; experiment: affinity purification with mass spectrometry; PIB-MS: phosphatase inhibitor beads (microcystin-LR on sepharose) on HeLa lysates, wild type and LCMT1 hypomorph clone; label-free LC-MS/MS; subunits normalised to the respective catalytic subunit

T1 sequence (P62714 1-308, stated change not applied): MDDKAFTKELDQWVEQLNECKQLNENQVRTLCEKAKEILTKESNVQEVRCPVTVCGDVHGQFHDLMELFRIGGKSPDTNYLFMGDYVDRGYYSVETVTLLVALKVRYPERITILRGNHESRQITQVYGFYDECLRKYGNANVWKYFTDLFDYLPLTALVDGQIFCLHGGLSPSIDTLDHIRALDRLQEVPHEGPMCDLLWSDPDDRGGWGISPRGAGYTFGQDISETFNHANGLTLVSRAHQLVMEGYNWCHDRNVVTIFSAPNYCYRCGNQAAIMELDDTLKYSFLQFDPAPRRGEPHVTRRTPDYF
T2 sequence (P67775 whole entry, canonical isoform): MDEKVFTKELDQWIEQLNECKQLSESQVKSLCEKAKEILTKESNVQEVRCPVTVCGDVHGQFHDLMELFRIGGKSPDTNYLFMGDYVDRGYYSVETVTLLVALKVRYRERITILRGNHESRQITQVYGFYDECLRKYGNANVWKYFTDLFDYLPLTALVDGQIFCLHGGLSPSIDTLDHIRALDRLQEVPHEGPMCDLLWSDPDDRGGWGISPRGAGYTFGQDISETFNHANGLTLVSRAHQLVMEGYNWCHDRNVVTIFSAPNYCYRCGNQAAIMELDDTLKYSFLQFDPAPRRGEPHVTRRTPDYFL

fold reduction of binding, ΔL against WT [1]: ~2 fold
B1: PR65β, PP2A scaffolding (A) subunit (natural protein, UniProt P30154 1-601, looked up)
chain: MAGASELGTGPGAAGGDGDDSLYPIAVLIDELRNEDVQLRLNSIKKLSTIALALGVERTRSELLPFLTDTIYDEDEVLLALAEQLGNFTGLVGGPDFAHCLLPPLENLATVEETVVRDKAVESLRQISQEHTPVALEAYFVPLVKRLASGDWFTSRTSACGLFSVCYPRASNAVKAEIRQQFRSLCSDDTPMVRRAAASKLGEFAKVLELDSVKSEIVPLFTSLASDEQDSVRLLAVEACVSIAQLLSQDDLETLVMPTLRQAAEDKSWRVRYMVADRFSELQKAMGPKITLNDLIPAFQNLLKDCEAEVRAAAAHKVKELGENLPIEDRETIIMNQILPYIKELVSDTNQHVKSALASVIMGLSTILGKENTIEHLLPLFLAQLKDECPDVRLNIISNLDCVNEVIGIRQLSQSLLPAIVELAEDAKWRVRLAIIEYMPLLAGQLGVEFFDEKLNSLCMAWLVDHVYAIREAATNNLMKLVQKFGTEWAQNTIVPKVLVMANDPNYLHRMTTLFCINALSEACGQEITTKQMLPIVLKMAGDQVANVRFNVAKSLQKIGPILDTNALQGEVKPVLQKLGQDEDMDVKYFAQEAISVLALA
notes: PP2A scaffolding subunit A, beta isoform (PR65β)

fold reduction of binding, ΔL against WT [1]: 2 fold
B2: B56δ, PP2A regulatory subunit (natural protein)
chain: not shown
notes: PP2A regulatory subunit B56, delta isoform

fold reduction of binding, LCMT1 HM against WT cells [2]: 4 fold
B3: STRN3 (striatin-3) (natural protein, human (endogenous in Rpe1), UniProt Q13033 1-797, looked up)
chain: MDELAGGGGGGPGMAAPPRQQQGPGGNLGLSPGGNGAAGGGGPPASEGAGPAAGPELSRPQQYTIPGILHYIQHEWARFEMERAHWEVERAELQARIAFLQGERKGQENLKKDLVRRIKMLEYALKQERAKYHKLKYGTELNQGDLKMPTFESEETKDTEAPTAPQNSQLTWKQGRQLLRQYLQEVGYTDTILDVRSQRVRSLLGLSNSEPNGSVETKNLEQILNGGESPKQKGQEIKRSSGDVLETFNFLENADDSDEDEENDMIEGIPEGKDKHRMNKHKIGNEGLAADLTDDPDTEEALKEFDFLVTAEDGEGAGEARSSGDGTEWDKDDLSPTAEVWDVDQGLISKLKEQYKKERKGKKGVKRANRTKLYDMIADLGDDELPHIPSGIINQSRSASTRMTDHEGARAEEAEPITFPSGGGKSFIMGSDDVLLSVLGLGDLADLTVTNDADYSYDLPANKDAFRKTWNPKYTLRSHFDGVRALAFHPVEPVLVTASEDHTLKLWNLQKTVPAKKSASLDVEPIYTFRAHIGPVLSLAISSNGEQCFSGGIDATIQWWNMPSPSVDPYDTYEPNVLAGTLVGHTDAVWGLAYSGIKNQLLSCSADGTVRLWNPQEKLPCICTYNGDKKHGIPTSVDFIGCDPAHMVTSFNTGSAVIYDLETSQSLVILSSQVDSGLQSNNHINRVVSHPTLPVTITAHEDRHIKFFDNKTGKMIHSMVAHLDAVTSLAVDPNGIYLMSGSHDCSIRLWNLDSKTCVQEITAHRKKLDESIYDVAFHSSKAYIASAGADALAKVFV
notes: Striatin-3, PP2A regulatory subunit of the striatin family (B'''); source: endogenous, Rpe1 lysate

fold reduction of binding, ΔL against WT [1]: 11 fold
fold more reduced in binding (LCMT1 HM against WT cells) than B56γ and B56δ [3]: 8 fold
B4: B56ε, PP2A regulatory subunit (natural protein)
chain: not shown
notes: PP2A regulatory subunit B56, epsilon isoform

fold reduction of binding, LCMT1 HM against WT cells [3]: ~4 fold
B5: B55β, PP2A regulatory subunit (natural protein, human (endogenous in HeLa), UniProt Q00005 1-443, looked up)
chain: MEEDIDTRKINNSFLRDHSYATEADIISTVEFNHTGELLATGDKGGRVVIFQREQESKNQVHRRGEYNVYSTFQSHEPEFDYLKSLEIEEKINKIRWLPQQNAAYFLLSTNDKTVKLWKVSERDKRPEGYNLKDEEGRLRDPATITTLRVPVLRPMDLMVEATPRRVFANAHTYHINSISVNSDYETYMSADDLRINLWNFEITNQSFNIVDIKPANMEELTEVITAAEFHPHHCNTFVYSSSKGTIRLCDMRASALCDRHTKFFEEPEDPSNRSFFSEIISSISDVKFSHSGRYIMTRDYLTVKVWDLNMENRPIETYQVHDYLRSKLCSLYENDCIFDKFECVWNGSDSVIMTGSYNNFFRMFDRNTKRDVTLEASRENSKPRAILKPRKVCVGGKRRKDEISVDSLDFSKKILHTAWHPSENIIAVAATNNLYIFQDKVN
notes: PP2A regulatory subunit B55, beta isoform; source: endogenous, HeLa lysate

fold reduction of binding, LCMT1 HM against WT cells [3]: ~11 fold
B6: B55α, PP2A regulatory subunit (natural protein, human (endogenous in HeLa), UniProt P63151 1-447, looked up)
chain: MAGAGGGNDIQWCFSQVKGAVDDDVAEADIISTVEFNHSGELLATGDKGGRVVIFQQEQENKIQSHSRGEYNVYSTFQSHEPEFDYLKSLEIEEKINKIRWLPQKNAAQFLLSTNDKTIKLWKISERDKRPEGYNLKEEDGRYRDPTTVTTLRVPVFRPMDLMVEASPRRIFANAHTYHINSISINSDYETYLSADDLRINLWHLEITDRSFNIVDIKPANMEELTEVITAAEFHPNSCNTFVYSSSKGTIRLCDMRASALCDRHSKLFEEPEDPSNRSFFSEIISSISDVKFSHSGRYMMTRDYLSVKIWDLNMENRPVETYQVHEYLRSKLCSLYENDCIFDKFECCWNGSDSVVMTGSYNNFFRMFDRNTKRDITLEASRENNKPRTVLKPRKVCASGKRKKDEISVDSLDFNKKILHTAWHPKENIIAVATTNNLYIFQDKVN
notes: PP2A regulatory subunit B55, alpha isoform; source: endogenous, HeLa lysate

fold reduction of binding, ΔL against WT [1]: 32 fold
B7: B56α, PP2A regulatory subunit (natural protein)
chain: not shown
notes: PP2A regulatory subunit B56, alpha isoform

fold reduction of binding, LCMT1 HM against WT cells [2]: 4 fold
B8: STRN (striatin) (natural protein, human (endogenous in Rpe1), UniProt O43815 1-780, looked up)
chain: MDEQAGPGVFFSNNHPGAGGAKGLGPLAEAAAAGDGAAAAGAARAQYSLPGILHFLQHEWARFEVERAQWEVERAELQAQIAFLQGERKGQENLKKDLVRRIKMLEYALKQERAKYHKLKYGTELNQGDMKPPSYDSDEGNETEVQPQQNSQLMWKQGRQLLRQYLQEVGYTDTILDVKSKRVRALLGFSSDVTDREDDKNQDSVVNGTEAEVKETAMIAKSELTDSASVLDNFKFLESAAADFSDEDEDDDVDGREKSVIDTSTIVRKKALPDSGEDRDTKEALKEFDFLVTSEEGDNESRSAGDGTDWEKEDQCLMPEAWNVDQGVITKLKEQYKKERKGKKGVKRPNRSKLQDMLANLRDVDELPSLQPSVGSPSRPSSSRLPEHEINRADEVEALTFPPSSGKSFIMGADEALESELGLGELAGLTVANEADSLTYDIANNKDALRKTWNPKFTLRSHFDGIRALAFHPIEPVLITASEDHTLKMWNLQKTAPAKKSTSLDVEPIYTFRAHKGPVLCVVMSSNGEQCYSGGTDGLIQGWNTTNPNIDPYDSYDPSVLRGPLLGHTDAVWGLAYSAAHQRLLSCSADGTLRLWNTTEVAPALSVFNDTKELGIPASVDLVSSDPSHMVASFSKGYTSIFNMETQQRILTLESNVDTTANSSCQINRVISHPTLPISITAHEDRHIKFYDNNTGKLIHSMVAHLEAVTSLAVDPNGLYLMSGSHDCSIRLWNLESKTCIQEFTAHRKKFEESIHDVAFHPSKCYIASAGADALAKVFV
notes: Striatin, PP2A regulatory subunit of the striatin family (B'''); source: endogenous, Rpe1 lysate
